Measurements taken from doi:10.1101/647354.

Target: complement C5 (human) (UniProt P01031)
Test: SPR

complement C5 (human), sequence (P01031 19-673, chain 1 of 2): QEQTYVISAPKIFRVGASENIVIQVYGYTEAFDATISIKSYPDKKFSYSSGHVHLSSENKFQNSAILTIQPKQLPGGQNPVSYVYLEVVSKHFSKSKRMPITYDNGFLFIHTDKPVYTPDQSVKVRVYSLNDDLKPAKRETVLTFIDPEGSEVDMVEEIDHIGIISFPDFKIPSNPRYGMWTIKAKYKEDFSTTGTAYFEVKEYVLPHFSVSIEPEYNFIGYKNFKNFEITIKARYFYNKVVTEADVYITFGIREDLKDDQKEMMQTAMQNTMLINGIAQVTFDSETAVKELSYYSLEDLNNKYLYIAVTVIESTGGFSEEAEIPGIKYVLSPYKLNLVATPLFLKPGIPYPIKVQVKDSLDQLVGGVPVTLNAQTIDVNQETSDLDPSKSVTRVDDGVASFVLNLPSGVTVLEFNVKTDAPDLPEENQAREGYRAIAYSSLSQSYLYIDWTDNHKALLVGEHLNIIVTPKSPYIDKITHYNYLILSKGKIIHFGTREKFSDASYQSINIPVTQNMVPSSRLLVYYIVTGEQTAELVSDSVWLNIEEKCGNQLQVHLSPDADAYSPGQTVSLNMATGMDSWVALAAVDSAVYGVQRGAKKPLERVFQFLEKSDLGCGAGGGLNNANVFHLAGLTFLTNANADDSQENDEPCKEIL
complement C5 (human), sequence (P01031 678-1676, chain 2 of 2): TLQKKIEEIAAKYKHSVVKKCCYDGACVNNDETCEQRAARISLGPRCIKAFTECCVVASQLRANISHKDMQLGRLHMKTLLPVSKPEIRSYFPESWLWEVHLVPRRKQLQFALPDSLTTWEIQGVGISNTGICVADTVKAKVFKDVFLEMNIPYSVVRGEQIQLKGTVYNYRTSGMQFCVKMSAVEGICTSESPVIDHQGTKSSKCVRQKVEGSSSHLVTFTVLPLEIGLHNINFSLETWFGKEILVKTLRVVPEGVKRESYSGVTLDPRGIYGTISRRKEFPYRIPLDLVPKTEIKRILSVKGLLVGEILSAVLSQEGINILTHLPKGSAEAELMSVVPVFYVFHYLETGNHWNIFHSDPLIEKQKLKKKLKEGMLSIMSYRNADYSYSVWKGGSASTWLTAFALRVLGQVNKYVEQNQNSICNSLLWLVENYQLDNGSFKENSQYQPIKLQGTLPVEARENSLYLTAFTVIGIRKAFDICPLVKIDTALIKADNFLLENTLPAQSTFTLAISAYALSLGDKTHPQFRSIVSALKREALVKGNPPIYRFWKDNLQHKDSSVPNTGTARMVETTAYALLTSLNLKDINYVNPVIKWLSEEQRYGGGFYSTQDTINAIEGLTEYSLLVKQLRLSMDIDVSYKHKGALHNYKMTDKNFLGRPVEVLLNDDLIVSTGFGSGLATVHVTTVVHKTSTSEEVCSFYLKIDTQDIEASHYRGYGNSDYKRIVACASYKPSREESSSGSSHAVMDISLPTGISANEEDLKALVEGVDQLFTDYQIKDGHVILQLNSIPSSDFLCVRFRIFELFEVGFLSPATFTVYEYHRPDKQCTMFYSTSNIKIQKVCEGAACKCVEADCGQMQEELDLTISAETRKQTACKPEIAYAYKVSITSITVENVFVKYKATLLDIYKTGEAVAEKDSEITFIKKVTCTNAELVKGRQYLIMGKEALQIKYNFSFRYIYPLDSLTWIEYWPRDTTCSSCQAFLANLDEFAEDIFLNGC

CirpT1 (Complement Inhibitor from Rhipicephalus pulchellus of the Terminal Pathway 1) (natural protein)
Kd: 0.01 µM
